Results from paper PMC3212559, “Large-Scale Protein-Protein Interaction Analysis in Arabidopsis Mesophyll Protoplasts by Split Firefly Luciferase Complementation” (PLoS ONE, 2011).

Assays:
Test in all cases: split reporter (BiFC, NanoBiT); SFLC in living Arabidopsis mesophyll protoplasts: Aux/IAA-FLucN or MYB30-FLucN co-expressed with ARFCTD-FLucC or Aux/IAA-FLucC for 6 hr; 10 µg of each construct, 2×10^4 cells, 96-well plate, D-luciferin; relative activity standardised against ARF5CTD-FLucC + IAA28-FLucN
Conditions in all cases: partners not purified
[1] = target: T1, ARF18 C-terminal domain (CTD)-FLucC (Arabidopsis, UniProt Q9C5W9 489-602)
T1 construct: Arabidopsis auxin response factor 18, C-terminal dimerization domain (CTD); In the ARF-ARF tests the same CTD stood both as ARFCTD-FLucC and as ARFCTD-FLucN; one molecule for both; also called ARF18CTD-FLucC; ARFCTD-FLucC; source: Arabidopsis mesophyll protoplasts, transfected, in living cells; not shown: FLucC (firefly luciferase aa 394-550)
T1 sequence (looked up): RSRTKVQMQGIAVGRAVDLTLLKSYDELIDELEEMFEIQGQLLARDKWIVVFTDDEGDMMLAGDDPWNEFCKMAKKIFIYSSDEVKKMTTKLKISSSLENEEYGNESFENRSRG

IAA14-FLucC = target: T2, IAA14-FLucC (Arabidopsis, UniProt Q38832 1-228)
T2 construct: Arabidopsis Aux/IAA protein IAA14; also called Aux/IAA-FLucC; source: Arabidopsis mesophyll protoplasts, transfected, in living cells; not shown: FLucC (firefly luciferase aa 394-550)
T2 sequence (looked up): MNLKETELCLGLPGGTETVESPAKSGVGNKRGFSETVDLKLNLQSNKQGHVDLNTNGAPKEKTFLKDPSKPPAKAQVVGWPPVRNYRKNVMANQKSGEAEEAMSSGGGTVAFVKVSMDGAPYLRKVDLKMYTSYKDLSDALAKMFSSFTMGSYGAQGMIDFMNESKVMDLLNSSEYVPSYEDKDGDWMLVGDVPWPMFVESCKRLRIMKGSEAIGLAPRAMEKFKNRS

[2] = target: T3, ARF12 C-terminal domain (CTD)-FLucC (Arabidopsis, UniProt Q9XID4 511-593)
T3 construct: Arabidopsis auxin response factor 12, C-terminal dimerization domain (CTD); In the ARF-ARF tests the same CTD stood both as ARFCTD-FLucC and as ARFCTD-FLucN; one molecule for both; also called ARF12CTD-FLucC; ARFCTD-FLucC; source: Arabidopsis mesophyll protoplasts, transfected, in living cells; not shown: FLucC (firefly luciferase aa 394-550)
T3 sequence (looked up): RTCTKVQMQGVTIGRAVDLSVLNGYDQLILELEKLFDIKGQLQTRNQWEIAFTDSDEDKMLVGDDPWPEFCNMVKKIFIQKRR

IAA28-FLucC = target: T4, IAA28-FLucC (Arabidopsis, UniProt Q9XFM0 1-175)
T4 construct: Arabidopsis Aux/IAA protein IAA28; also called Aux/IAA-FLucC; source: Arabidopsis mesophyll protoplasts, transfected, in living cells; not shown: FLucC (firefly luciferase aa 394-550)
T4 sequence (looked up): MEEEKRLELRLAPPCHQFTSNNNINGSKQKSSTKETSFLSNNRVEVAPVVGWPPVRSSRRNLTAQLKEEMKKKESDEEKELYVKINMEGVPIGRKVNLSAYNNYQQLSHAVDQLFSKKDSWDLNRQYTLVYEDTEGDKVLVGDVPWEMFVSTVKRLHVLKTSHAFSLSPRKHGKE

IAA17-FLucC = target: T5, IAA17-FLucC (Arabidopsis, UniProt P93830 1-229)
T5 construct: Arabidopsis Aux/IAA protein IAA17; also called Aux/IAA-FLucC; source: Arabidopsis mesophyll protoplasts, transfected, in living cells; not shown: FLucC (firefly luciferase aa 394-550)
T5 sequence (P93830 whole entry, the tested form may be a part): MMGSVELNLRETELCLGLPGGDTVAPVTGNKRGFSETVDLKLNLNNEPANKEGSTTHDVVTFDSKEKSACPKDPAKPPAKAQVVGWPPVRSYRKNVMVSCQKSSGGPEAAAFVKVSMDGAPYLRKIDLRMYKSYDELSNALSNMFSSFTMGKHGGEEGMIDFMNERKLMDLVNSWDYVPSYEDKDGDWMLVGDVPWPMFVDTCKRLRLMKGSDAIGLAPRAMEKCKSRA

IAA9-FLucC = target: T6, IAA9-FLucC (Arabidopsis, UniProt Q38827 1-338)
T6 construct: Arabidopsis Aux/IAA protein IAA9; also called Aux/IAA-FLucC; source: Arabidopsis mesophyll protoplasts, transfected, in living cells; not shown: FLucC (firefly luciferase aa 394-550)
T6 sequence (looked up): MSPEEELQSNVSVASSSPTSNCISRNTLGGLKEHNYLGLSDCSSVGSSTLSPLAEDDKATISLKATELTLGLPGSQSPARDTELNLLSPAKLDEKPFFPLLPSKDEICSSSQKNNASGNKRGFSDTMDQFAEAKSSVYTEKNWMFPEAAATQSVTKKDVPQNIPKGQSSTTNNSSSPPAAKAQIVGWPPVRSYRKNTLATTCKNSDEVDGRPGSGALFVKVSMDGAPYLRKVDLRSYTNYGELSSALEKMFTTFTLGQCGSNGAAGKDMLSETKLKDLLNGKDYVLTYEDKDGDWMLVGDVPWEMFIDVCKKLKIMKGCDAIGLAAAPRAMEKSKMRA

Measured: relative luciferase activity (standardised against ARF5CTD-FLucC + IAA28-FLucN)

B1: MYB30-FLucN (natural protein, UniProt Q9SCU7 1-323, looked up)
chain: MVRPPCCDKGGVKKGPWTPEEDIILVTYIQEHGPGNWRAVPTNTGLLRCSKSCRLRWTNYLRPGIKRGNFTEHEEKMIVHLQALLGNRWAAIASYLPQRTDNDIKNYWNTHLKKKLNKVNQDSHQELDRSSLSSSPSSSSANSNSNISRGQWERRLQTDIHLAKKALSEALSPAVAPIITSTVTTTSSSAESRRSTSSASGFLRTQETSTTYASSTENIAKLLKGWVKNSPKTQNSADQIASTEVKEVIKSDDGKECAGAFQSFSEFDHSYQQAGVSPDHETKPDITGCCSNQSQWSLFEKWLFEDSGGQIGDILLDENTNFF
notes: transcription factor MYB30, the unrelated protein used as negative control; source: Arabidopsis mesophyll protoplasts, transfected, in living cells; not shown: FLucN (firefly luciferase aa 1-398)
< 0.1: all assays above
